# In the supplement of paper PMC9112550, “Optimization of the antimicrobial peptide Bac7 by deep mutational scanning” (BMC Biology, 2022):
# Tested on: Escherichia coli TOP10
# Assay: shrunken log2 fold change of peptide-encoding DNA abundance (4.5 h post-induction vs induction); higher = less antimicrobial activity (less host growth inhibition)
# Settings: time post-induction: 4.5 h; library: site-saturation at positions 5, 18, 19, 20
# 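Note: peptides expressed intracellularly from a pBAD plasmid library in pooled LB shake-flask culture, induced with 0.3% L-arabinose, DNA abundance read by NGS, three biological replicates, DESeq2 with apeglm shrinkage.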
row,Sequence,shrunken log2 fold change
1,RRIRSRPPRLPRPRPRPGIWPRP,0.123
2,RRIRGRPPRLPRPRPRPYQHPRP,-0.376
3,RRIRYRPPRLPRPRPRPATTPRP,-0.415
4,RRIRQRPPRLPRPRPRPWDPPRP,-0.327
5,RRIRQRPPRLPRPRPRPCDHPRP,0.00902
6,RRIRKRPPRLPRPRPRPTPFPRP,0.113
7,RRIRARPPRLPRPRPRPLRHPRP,0.619
8,RRIRTRPPRLPRPRPRPEWSPRP,0.0383
9,RRIRPRPPRLPRPRPRPLLKPRP,0.593
10,RRIRERPPRLPRPRPRPFITPRP,-0.314
11,RRIRFRPPRLPRPRPRPNLTPRP,-0.347
12,RRIRKRPPRLPRPRPRPLTQPRP,0.198
13,RRIRNRPPRLPRPRPRPAEEPRP,0.119
14,RRIRNRPPRLPRPRPRPIRNPRP,-0.422
15,RRIRMRPPRLPRPRPRPFHCPRP,0.0959
16,RRIRKRPPRLPRPRPRPLSSPRP,0.115
17,RRIRYRPPRLPRPRPRPIFNPRP,-0.89
18,RRIRNRPPRLPRPRPRPPWQPRP,0.161
19,RRIRSRPPRLPRPRPRPNVHPRP,-0.312
20,RRIRKRPPRLPRPRPRPTDLPRP,0.0464
21,RRIRSRPPRLPRPRPRPMNSPRP,-0.776
22,RRIRKRPPRLPRPRPRPKPFPRP,0.611
23,RRIRYRPPRLPRPRPRPHMFPRP,0.0171
24,RRIRYRPPRLPRPRPRPVDNPRP,-0.0156
25,RRIRARPPRLPRPRPRPRTAPRP,0.844

row,Sequence,shrunken log2 fold change
1,RRIRNRPPRLPRPRPRPLPHPRP,-0.387
2,RRIRVRPPRLPRPRPRPFNSPRP,-0.00973
3,RRIRRRPPRLPRPRPRPHVVPRP,0.0538
4,RRIRARPPRLPRPRPRPFATPRP,0.66
5,RRIRERPPRLPRPRPRPKDGPRP,0.0062
6,RRIRDRPPRLPRPRPRPCNLPRP,-0.0295
7,RRIRDRPPRLPRPRPRPSCTPRP,-0.244
8,RRIRNRPPRLPRPRPRPWEAPRP,-0.173
9,RRIRERPPRLPRPRPRPHIDPRP,-0.34
10,RRIRCRPPRLPRPRPRPLPGPRP,0.262
11,RRIRMRPPRLPRPRPRPGVSPRP,0.461
12,RRIRTRPPRLPRPRPRPKHQPRP,0.219
13,RRIRYRPPRLPRPRPRPHHRPRP,-0.306
14,RRIRSRPPRLPRPRPRPNIYPRP,-0.519
15,RRIRYRPPRLPRPRPRPNWWPRP,-0.00469
16,RRIRHRPPRLPRPRPRPENTPRP,0.0466
17,RRIRYRPPRLPRPRPRPHFTPRP,-0.817
18,RRIRWRPPRLPRPRPRPFVPPRP,-0.266
19,RRIRIRPPRLPRPRPRPKFEPRP,-0.361
20,RRIRDRPPRLPRPRPRPMKCPRP,-0.00962
21,RRIRFRPPRLPRPRPRPRDEPRP,0.278
22,RRIRTRPPRLPRPRPRPGGHPRP,0.0329
23,RRIRDRPPRLPRPRPRPLEVPRP,0.121
24,RRIRERPPRLPRPRPRPPRRPRP,0.408
25,RRIRARPPRLPRPRPRPCQSPRP,-0.0122

row,Sequence,shrunken log2 fold change
1,RRIRKRPPRLPRPRPRPKRFPRP,-0.0257
2,RRIRFRPPRLPRPRPRPHVKPRP,-0.0318
3,RRIRNRPPRLPRPRPRPRNKPRP,-0.107
4,RRIRYRPPRLPRPRPRPPEWPRP,0.0503
5,RRIRCRPPRLPRPRPRPKEAPRP,0.085
6,RRIRQRPPRLPRPRPRPHETPRP,-0.0223
7,RRIRCRPPRLPRPRPRPQIHPRP,-0.548
8,RRIRIRPPRLPRPRPRPNIPPRP,-0.818
9,RRIRVRPPRLPRPRPRPTQIPRP,0.149
10,RRIRQRPPRLPRPRPRPYYLPRP,-0.253
11,RRIRNRPPRLPRPRPRPWLGPRP,0.0222
12,RRIRPRPPRLPRPRPRPSWFPRP,-0.248
13,RRIRYRPPRLPRPRPRPYKSPRP,0.0233
14,RRIRHRPPRLPRPRPRPCTYPRP,-0.634
15,RRIRERPPRLPRPRPRPQQYPRP,-0.318
16,RRIRSRPPRLPRPRPRPMTCPRP,0.04
17,RRIRVRPPRLPRPRPRPASNPRP,-0.0943
18,RRIRKRPPRLPRPRPRPTPYPRP,0.235
19,RRIRFRPPRLPRPRPRPGHPPRP,-0.0866
20,RRIRHRPPRLPRPRPRPQTEPRP,-0.102
21,RRIRERPPRLPRPRPRPNFGPRP,0.0437
22,RRIRVRPPRLPRPRPRPYQPPRP,-0.509
23,RRIRPRPPRLPRPRPRPYCQPRP,-0.223
24,RRIRHRPPRLPRPRPRPYFPPRP,-1.43
25,RRIRFRPPRLPRPRPRPPKYPRP,-0.0263

row,Sequence,shrunken log2 fold change
1,RRIRTRPPRLPRPRPRPGHAPRP,0.161
2,RRIRIRPPRLPRPRPRPWFLPRP,-0.802
3,RRIRQRPPRLPRPRPRPITDPRP,0.00271
4,RRIRDRPPRLPRPRPRPYKSPRP,-0.106
5,RRIRLRPPRLPRPRPRPLIMPRP,-0.435
6,RRIRFRPPRLPRPRPRPALPPRP,0.0544
7,RRIRLRPPRLPRPRPRPWQFPRP,-0.196
8,RRIRLRPPRLPRPRPRPQNVPRP,-0.523
9,RRIRFRPPRLPRPRPRPWLMPRP,-0.58
10,RRIRARPPRLPRPRPRPGNNPRP,-0.0708
11,RRIRDRPPRLPRPRPRPRDEPRP,0.12
12,RRIRKRPPRLPRPRPRPQKWPRP,0.0282
13,RRIRHRPPRLPRPRPRPRSNPRP,-0.253
14,RRIRLRPPRLPRPRPRPLSSPRP,-0.0447
15,RRIRIRPPRLPRPRPRPNRTPRP,0.101
16,RRIRTRPPRLPRPRPRPGWHPRP,-0.014
17,RRIRDRPPRLPRPRPRPNVMPRP,-0.323
18,RRIRRRPPRLPRPRPRPDPFPRP,0.1
19,RRIRFRPPRLPRPRPRPEPGPRP,0.534
20,RRIRGRPPRLPRPRPRPGTEPRP,0.731
21,RRIRVRPPRLPRPRPRPIPLPRP,-0.107
22,RRIRFRPPRLPRPRPRPTHIPRP,-0.496
23,RRIRFRPPRLPRPRPRPWIHPRP,-0.804
24,RRIRERPPRLPRPRPRPQQQPRP,0.00378
25,RRIRRRPPRLPRPRPRPTTCPRP,0.379

row,Sequence,shrunken log2 fold change
1,RRIRQRPPRLPRPRPRPHNMPRP,-0.283
2,RRIRKRPPRLPRPRPRPYMWPRP,-0.0774
3,RRIRKRPPRLPRPRPRPQRGPRP,-0.0338
4,RRIRVRPPRLPRPRPRPLFTPRP,-0.448
5,RRIRCRPPRLPRPRPRPDESPRP,0.153
6,RRIRGRPPRLPRPRPRPTEIPRP,0.284
7,RRIRLRPPRLPRPRPRPHPNPRP,-0.247
8,RRIRFRPPRLPRPRPRPPTRPRP,0.748
9,RRIRGRPPRLPRPRPRPFWMPRP,0.103
10,RRIRWRPPRLPRPRPRPAEQPRP,-0.00651
11,RRIRTRPPRLPRPRPRPHIYPRP,-0.00363
12,RRIRLRPPRLPRPRPRPTTLPRP,0.0342
13,RRIRGRPPRLPRPRPRPRFFPRP,0.741
14,RRIRSRPPRLPRPRPRPDKKPRP,-0.158
15,RRIRWRPPRLPRPRPRPYEHPRP,-0.12
16,RRIRDRPPRLPRPRPRPHSAPRP,0.0279
17,RRIRSRPPRLPRPRPRPGGRPRP,0.284
18,RRIRSRPPRLPRPRPRPFSRPRP,-0.347
19,RRIRPRPPRLPRPRPRPGGPPRP,0.41
20,RRIRPRPPRLPRPRPRPWATPRP,-0.213
21,RRIRIRPPRLPRPRPRPSHVPRP,-0.523
22,RRIRIRPPRLPRPRPRPGRYPRP,-0.0696
23,RRIRSRPPRLPRPRPRPEPYPRP,0.0691
24,RRIRGRPPRLPRPRPRPMCGPRP,0.645
25,RRIRKRPPRLPRPRPRPMQSPRP,0.995
